Source: the MegaScale stability set (Tsuboyama et al. 2023)

B1: r16_88_TrROS_Hall (parent)
chain: EVIELKIKFKTPEQREKLKEIAKKLNAEVVEEKDGEVIIRFKTPEQAERALKEAEKLGAEVEL

Variants of: B1
Experiment: folding stability dG (cDNA display proteolysis); higher = more stable
Conditions: PBS, room temperature

Folding stability dG [kcal/mol], by site and new letter:
A59: G 4.18, M 4.39, Q 4.05, S 4.26, T 4.27, Y 4.5, C 4.17, P 4.55, I 4.01, R 3.99, V 4.65, L 4.62, E 4.23, K 4.31, D 4.28, N 4.3, W 4.21, F 4.59, H 4.43
E62: L 4.21, A 4.5, W 3.87, T 4.4, K 4.17, I 4.35, M 4.24, V 4.35, Q 4.3, F 4.25, C 4.59, G 4.46, D 4.59, N 4.53, S 4.5, R 3.94, Y 4.12, P 3.84, H 4.37
G58: N 4.25, K 4.25, P 3.83, Q 4.25, M 4.33, L 4.35, V 4.21, W 4.21, T 4.26, R 4.27, I 4.22, Y 4.25, S 4.43
L63: N 4.3, T 4.24, M 4.23, D 4.33, A 4.17, I 4.22, G 4.38, H 4.59, F 4.07, C 4.44, S 4.39, W 4.73, V 4.25, Y 4.35, R 4.28, P 4.69, K 4.56, E 4.22
E60: H 4.19, M 4.11, R 4.15, D 4.24, P 3.44, C 4.27, G 3.81, L 4.21, W 4.01, S 4.28, Y 4.21, I 4.12, Q 4.2, K 4.38, T 4.4, A 4.12, F 4.07, V 4.54, N 4.29
V61: I 4.29, S 3.93, E 4.3, C 4.16, L 4.28, P 4.14, Q 4.22, G 4.4, H 4.39, D 4.72, N 4.28, W 3.96, K 3.84, F 4.05, T 4.2, M 3.99, A 4.51, Y 3.79, R 3.46
